{"source": "the nanobody polyreactivity screen of Harvey et al. (2022)", "data": [{"experiment": "yeast display, Sf9 membrane polyspecificity reagent, FACS + sequencing; frameworks hold sequencing errors", "outline": "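Using colony PCR, genes from sorted yeast display clones were amplified, then sequenced on MiSeq at 2 × 250 and filtered by CDR length. The clones had been stained with 10% biotinylated, detergent-solubilized Sf9 membrane reagent for 1 hour at 4 °C and sorted by FACS into low and high (top ~1%) gates on anti-HA and streptavidin fluorescence. Polyreactivity labels come from the gate of origin.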", "values": [{"sequence": "QVQLVESGGGLVQAGGSLRLSCAASGSIFGAYAMGWYRQAPGKERELVAAISGSGTSTYYADSVKGRFTISRDNAKNTVYLQMNSLKPDDTAVYYCATAKLTWRSQGLDYWGQGTQVTVSS", "polyreactivity (PSR sort gate)": "low polyreactivity"}, {"sequence": "QVHLLERGGGLVQAGGSLRLSCMASGSILGDSMSWYRQAPGKEHELVATIYDGGITYYADSMKGRFTISRDNAKNSVYLQMNSLRPEDTAVYYCGASFEGYSYHVYCGQGTQVTVSS", "polyreactivity (PSR sort gate)": "low polyreactivity"}, {"sequence": "QVQLVESGGGLVQAGGSLRLSCAASGLIFPYYAMGWYRQAPGKERELVAAISRSGDSTYYADSVKGRFTISRDNAKITVYLQMNSLKPEDTAFYYCAAVLSYSYVRYNYWGQGTQVNVSS", "polyreactivity (PSR sort gate)": "high polyreactivity"}, {"sequence": "QVQLVESGGGLVQAGGSLSLSCDASGSIFRSNAMGWYRQAPGKERELVAAISRSGGRTYYADSVKGRFTISRDNAKNTVYLQMNSLKPEDTAVYYCAAQVVRSLKYEYWGQGTQVTVSS", "polyreactivity (PSR sort gate)": "high polyreactivity"}, {"sequence": "QVQLVESGGGLVQAGGSLRLSCAASVGWYRQAPGKERELVAAISFSGGSTYYADSVKGRFTISRDNAKNTVYLQMNSLKPEDTAVYYCAAENFWQTKEYDYWGQGTQVTVSS", "polyreactivity (PSR sort gate)": "low polyreactivity"}, {"sequence": "QVQLVESGGGLVQAGGSLRLSCAASGRTFFYNAMGWYRQAPGKERELVAAISSGGGSTYYADSVKGRFTISRDNAKNTVYLQMNSLKPEDTAVYYCAAASYRQPGYGYWGQGTQVTVSS", "polyreactivity (PSR sort gate)": "high polyreactivity"}, {"sequence": "QVQLVESGGGLVQAGGSLRLSCAASGRIFASNAMGWYRPAPGKERELVAAIDQGGGSTYYADSVKGRFTISRDNAKNTVYLQMNSLKPEDTAVYYCAADYITAYPRLYNYWGQGTQVTVSS", "polyreactivity (PSR sort gate)": "low polyreactivity"}, {"sequence": "QVQLVESGGGLVQAGGSLRLSCAASGSTFGWNAMGWYRQAPGKERELVAAISSRGGSTSYADSVKGRFTISRDNAKNSVYLQMNSLKPEYTAVYYCAAPYVYYRYGYWGLGTQVTVSS", "polyreactivity (PSR sort gate)": "low polyreactivity"}, {"sequence": "QVHLVESGGGLVQAGGSLRLSCAASGSNFYPYAMGWYRQEPGKERELVAAIRWRGDRTYYADSVKGRFTISRDNAKKTVYLQMNSLKPEDTGVYYCAADLSGWSTHGSWGQATQVTVSS", "polyreactivity (PSR sort gate)": "high polyreactivity"}, {"sequence": "QDQLVESGGGLVQAGGRLRLTCAASGNTFSGNAMGWYRQAPGKERELVAAISGSGASTYYADSVKGRFTISRDNAKNTVYLQMNSLKPEDTAVYYCDADKPGIFSRFDYWGQGTQVTVSS", "polyreactivity (PSR sort gate)": "low polyreactivity"}, {"sequence": "QVQLVESGGGLVQAGGSLRLSCAASGNIIWGNAMGWYRQAPGKERELVAAISRRSGSTYYADSVKGRFTISRDNAKNTVYLQMNSLKPEDTAVYYCNTAGRVGTYDYWGQGTQVTVSS", "polyreactivity (PSR sort gate)": "high polyreactivity"}, {"sequence": "QVQLVESGRGLVQEGGSLRLSCAPSGSTFYRFAMGWYRQAPGKERELVAAISASGGSTYYADSVKGRFTISRDNAKYTVYLQMNSLKPEDTEVYYCNRDRRYRNDYWGQGTQVTVST", "polyreactivity (PSR sort gate)": "high polyreactivity"}, {"sequence": "QVQLVESGGGLVQAGGSLRLSCAASGSIFVSYAMGWYRQAPGKERELVAAITYSGGRTYYADSVKGRFTISRDNAKNTVYLQMNCLKPEDTAVYYCAKRVSYPVRFPYFSYDYWGQGTQVTVSS", "polyreactivity (PSR sort gate)": "low polyreactivity"}, {"sequence": "QVQLVESGGGLVQAGGSLRLSCAASGFIFAWYAMGWSRQAPGKERELVADISWGGGSTYYADSVKGRFTISRDNAKNTVYLQMNSLKPEDTAVYYCAATRPATYAAYDYWGQGTQVTVSS", "polyreactivity (PSR sort gate)": "high polyreactivity"}, {"sequence": "QVQLEDSGGGLVQAGGSLRLSCAASGFIFRGYGMGWYRQAPGKERELLASITTGGRTNYADSVKGRFTISRDNAKNTVYLQMNCLKPEDTAVYYCAATYYLRLRRPYWQGFNYWGQGTQVTVSS", "polyreactivity (PSR sort gate)": "high polyreactivity"}, {"sequence": "QVQLEESVGGLVQAGGSLRLSCAASGITFYDYTMGWYRQAPGKERELVAAISSRGGSTYYADSVKGRFTISRDNAKNTVYLQMNSLKPEDTAVYYCNARYNSWRYLAQYNYWGQGTQVTVSS", "polyreactivity (PSR sort gate)": "high polyreactivity"}, {"sequence": "QVQLVESGGGLVQAGGSLRLSCAASGRIFHGYAMGWYRQAPGKERELVAAISSGGRTNYADSVKGRFTISRDNAKNTVYLQMNSLKPEDTAVYYCAAETQWYVRSRTLFYRYDYWGQGTQVTVSS", "polyreactivity (PSR sort gate)": "high polyreactivity"}]}]}
